Results on 30 sequences are retold here after the nanobody polyreactivity screen of Harvey et al. (2022).

The series is described as follows: yeast display, Sf9 membrane polyspecificity reagent, FACS + sequencing; frameworks hold sequencing errors. The essentials: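 Nanobodies came from a synthetic yeast display library in Saccharomyces cerevisiae BJ5465, induced with galactose for 36–48 hours and stained for 1 hour at 4 °C with 10% biotinylated, detergent-solubilized Sf9 membrane reagent. Cells were enriched on streptavidin microbeads and then FACS-sorted, with low and high (top ~1%) gates set on anti-HA fluorescence for expression and streptavidin fluorescence for reagent binding. Each polyreactivity label reflects the gate a clone came from. Genes were amplified by colony PCR, sequenced by MiSeq 2 × 250 and filtered by CDR length.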
Turning to “QVQLVESGGGLVQAGGSLRLSCAASGITFYKNVMGWYRQAPGKERELVAAISSSGGSTYYADSVKGRFTISRDNAKNTVYLQMNSLKPEDTAVYYCAADDPLYTPYEFDYWGQGTQVTVSS”, the “polyreactivity (PSR sort gate)” value was “low polyreactivity”.

On to “QVQLVESGGGLVQAGGSLRLSCAASGITFYKNVMGWYRQAPGKERELVAAISSSGGSTYYADSVKGRFTISRDNAKNTVYLQMNSLKPEDTAVYYCAADEDDVVSGFLRYFYVAYYYWGQGTQVTVSS”, for which the “polyreactivity (PSR sort gate)” value is given as “low polyreactivity”.

Regarding “QVQLVESGGGLVQAGGSLRLSCAASGITFYKYTMGWYRQAPGKERELVAAISVRGGRTYYADSVKGRFTISRDNAKNTVYLQMNSLKPEDTAVYYCNRVPKDAYDYWGQGTQVTVSS”, the “polyreactivity (PSR sort gate)” value is “high polyreactivity”.

“QVQLVESGGGLVQAGGSLRLSCAASGITFYKYTMGWYRQAPGKERELVAAISVRGGRTYYADSVKGRFTISRDYAKNTVDLQMNSLKPEDTAVYYCAAGSQPGRKYYYWGQGTQVTVSS”: the “polyreactivity (PSR sort gate)” value was “high polyreactivity”.

Consider “QVQLVESGGGLVQAGGSLRLSCAASGITFYLYAMGWYRQAPGKERELVAAISSSGGSTYYADSVKGRFTISRDNAKNTVYLQMNSLKPEDTAVYYCNASRRTVPYRYDYWGQGTQVTVSS”, for which the “polyreactivity (PSR sort gate)” value is “high polyreactivity”.

Turning to “QVQLVESGGGLVQAGGSLRLSCAASGITFYPYVMGWYRQAPGKERELVAVITWSGGRTYYADSVKGRFTISRDNAKNTVYLQMNSLKPEDTAVYYCAADPLSGYDYWGQGTQVTVSS”, the “polyreactivity (PSR sort gate)” value is “low polyreactivity”.

As for “QVQLVESGGGLVQAGGSLRLSCAASGITFYRNAMGWYRQAPGKERELVAAISWSGGRTYYADSVKGRFTISRDNAKNTVYLQMNSLKPEDTAVYYCNKYTHYYDYDYWGQGTQVTVSS”, the “polyreactivity (PSR sort gate)” value was “high polyreactivity”.

Consider “QVQLVESGGGLVQAGGSLRLSCAASGITFYRNAMGWYRQATGKERELVAAITSGTSTYYADSVKGRFTISRDNAKNTVYLQMNSLKPEDTAVYYCAKRTPPGYYGFDYWGQGTQVTVSS”, for which the “polyreactivity (PSR sort gate)” value was “low polyreactivity”.

“QVQLVESGGGLVQAGGSLRLSCAASGITFYRYAMGWYRQAPGKEREFVAAITWGSTYYADSVKGRFTISRDNAKNTVYLQMNSLKPEDTAVYYCNKKGYTVGATVGYWGQGTQVTVSS”: the “polyreactivity (PSR sort gate)” value was “low polyreactivity”.

On to “QVQLVESGGGLVQAGGSLRLSCAASGITFYRYVMGWYRQAPGKERELVAAITSRGGSTSYADSVKGRFTISRDNAKNTVYLQMNSLKPEDTAVYNCAADLSGWGRDARGAYDYWGQGPQVTVSS”, for which the “polyreactivity (PSR sort gate)” value is “high polyreactivity”.

Turning to “QVQLVESGGGLVQAGGSLRLSCAASGITFYSYAMGSYRQAPGKERELVAAISWRGGSTRYADSVKGRFTISRDNAKNTVYLQMNSLKPEDTAVYYCAARLRTKLPIPSTVGYWGQGTQVTVSS”, the “polyreactivity (PSR sort gate)” value is given as “high polyreactivity”.

As for “QVQLVESGGGLVQAGGSLRLSCAASGITFYSYAMGWYRQAPGKERELVAAINRSGGSTYYADSVKGRFTISRDNAKNTVYLQMNSLKPEDSAVYYCAAEEGRVFSGGYDYWGQGTQVTVSS”, the “polyreactivity (PSR sort gate)” value is given as “high polyreactivity”.

On to “QVQLVESGGGLVQAGGSLRLSCAASGITFYTYAMGWYRQAPGKERELVAAITGTGTSTYYADSVKGRFTISRDNAKNTVYLQMNSLKPEDTAVYYCAAYKRGLPVKRDSWGQGTQVTVSS”, for which the “polyreactivity (PSR sort gate)” value is reported as “high polyreactivity”.

Regarding “QVQLVESGGGLVQAGGSLRLSCAASGITFYVYAMGWYRQAPGKERELVASITSGGGSTDYADSVKGRFTISRDNAKNTVYLQMNSLKPEDTAVYYCAARYPLLNQLYDFDYWGQGTQVTVSS”, the “polyreactivity (PSR sort gate)” value is recorded as “low polyreactivity”.

On to “QVQLVESGGGLVQAGGSLRLSCAASGITFYWYAMGWYRQAPGKERELVARISSTGGSTYYADSVKGRFTISRDNAKNTVYLQMNSLKPEDTAVYYCNAVGRLYLYGSWGQGTQVTLSS”, for which the “polyreactivity (PSR sort gate)” value was “high polyreactivity”.

For “QVQLVESGGGLVQAGGSLRLSCAASGITFYYNTMGWYRQAPGKERELVAAISSRSGSTYYADSVKGRFTISRDKAKNNVSLQMNCLKPEDTAVYYCAARRAAKYYWGQGTQVTVSS”, the “polyreactivity (PSR sort gate)” value is “high polyreactivity”.

With “QVQLVESGGGLVQAGGSLRLSCAASGITFYYYAMGWYRQAPGKERELVAAISSGGRTYYADSVKGRFTISRDNAKNTVYLQMNSLKPEDTAVYYCAASFLVTSREYDYWGQGTQVTVSS”, the “polyreactivity (PSR sort gate)” value is given as “high polyreactivity”.

With “QVQLVESGGGLVQAGGSLRLSCAASGITGHNAMGWYRQAPGKERELVARISSGGRTNYADSVKGRFTISRDNAKNTVYLKMNSLKPEDTAVYYCAAGFRVGSFLRYNYWGQGTKVTVSS”, the “polyreactivity (PSR sort gate)” value was “high polyreactivity”.

Consider “QVQLVESGGGLVQAGGSLRLSCAASGITIAGYAMGWYRQAPGKERELVAAISSRGSSTRYADSVKGRFTISRDNAKNTVYLQMNSLKPEDSAVYYCAARNEYWGQGTQVTVSS”, for which the “polyreactivity (PSR sort gate)” value is given as “high polyreactivity”.

For the sequence “QVQLVESGGGLVQAGGSLRLSCAASGITIGRYAMGWYRQAPGKERELVAAISSTGGRTYYADSVKGRFTISRDNAKNTVYLQMNSLKPEDTAVYYCAKKFAVFVSGYGYWGQGTQVTVSS”, the “polyreactivity (PSR sort gate)” value is “high polyreactivity”.

In the case of “QVQLVESGGGLVQAGGSLRLSCAASGITIVYYAMGWYRQAPGKERELVAAITRGGNTYYADSVKGRFTISRDNAKNTVYLQMNSLKPEDTAVYYCAAVGYYYSALDMDYWGQGTQVTVSS”, the “polyreactivity (PSR sort gate)” value is given as “low polyreactivity”.

As for “QVQLVESGGGLVQAGGSLRLSCAASGITIYKYAMGWYRQAPGKERELVAAITRGGSTNYADSVKGRFTISRDNAKNTVYLQMNSLKPEDTAVYYCNKVYHWQSPGFGYGYWGQGSQVTVSS”, the “polyreactivity (PSR sort gate)” value is “high polyreactivity”.

For the sequence “QVQLVESGGGLVQAGGSLRLSCAASGITIYYYAMGWYRQAPGTERELVAAISTTVGSTYYADSVKGRFTISRDNAKNTVYLQMNSLKPEDTAVYYCNAYRVYAWIEYNYWGQGTQVTVSS”, the “polyreactivity (PSR sort gate)” value was “low polyreactivity”.

As to “QVQLVESGGGLVQAGGSLRLSCAASGITLFGYAMGWYRQAPGKERELVAAITSGGSTYYADSVKGRFTISRDNAKNTVYLQMNSLKPEDTAVYYCATSYVYYKYYSQEIYVYGFEYWGQGTQVTVSS”, the “polyreactivity (PSR sort gate)” value was “high polyreactivity”.

Consider “QVQLVESGGGLVQAGGSLRLSCAASGITLGTYVMGWYRQAPGKERELVAAISSGGSTYYADSVKGRFTISRDNAKNTVYLQMNSLKPEDTAVYYCAAQYYPYYDSRVSYDYWGQGTQVTVSS”, for which the “polyreactivity (PSR sort gate)” value is given as “low polyreactivity”.

Take “QVQLVESGGGLVQAGGSLRLSCAASGITLGYYAMGWYRQAPGKERELVAAITWSGTSTYYADSVKGRFTISRDNAKNTVYLQMNSLKPEDTAVYYCAAGFISQYQERGYWGQGTQVTVSS”: the “polyreactivity (PSR sort gate)” value is recorded as “low polyreactivity”.

On to “QVQLVESGGGLVQAGGSLRLSCAASGITLINYAMGWYRQAPGKERELVAAISTSGSSTYYADSVKGRFTISRDNAKNTVYLQMNSLKQEDTAVYYCNAEGQPLYVSWHDHRYIYGFDYWGQGTQVTVSS”, for which the “polyreactivity (PSR sort gate)” value was “low polyreactivity”.

As for “QVQLVESGGGLVQAGGSLRLSCAASGITLNRNAMGWYRQAHGKERELVARISRRGGTTYYADSVKGRFTISRDNAKNTVYLQMNSLKPEDTAVYYCNAGPYGGNPFDYWGQGTQVTVSS”, the “polyreactivity (PSR sort gate)” value was “high polyreactivity”.

For “QVQLVESGGGLVQAGGSLRLSCAASGITLNRNAMGWYRQAPGKERELVSRISRRGGTTYYADSVKGRFTISRDNAKNTVYLLMNSLKPEDTAVYYCNAGPYGGNPFDYSGQGTQVTVSS”, the “polyreactivity (PSR sort gate)” value is reported as “high polyreactivity”.

In the case of “QVQLVESGGGLVQAGGSLRLSCAASGITLRRNAMGWYRQATGKERELVAAISWSGGRTYYADSVKGRFTISRDNAKNTVYLQMNSLKPEDTAVYYCAARGYPLTAIDYWGQGTQVTVSS”, the “polyreactivity (PSR sort gate)” value is reported as “high polyreactivity”.
